Patent CN110305214A

B1: W3452-2.683.2-z27-IgG1L (antibody, V domains shown)
VH: EVQLVESGGGLVQPGRSLRLSCAASGFTFSTYGMAWVRQAPGKGLEWVSSISTSGGSTYYRDSVQGRFTISRDNAKSSLYLQMNSLRAEDTATYYCTTKGGRTYRLAYWGQGTLVTVSS
VL: SYELMQPPSVSVSPGQTARITCSGIELSNKYAHWYQQKPGQAPVEVMYKDSERPSGIPERFSGSRSGTTVTLTISGVQAEDEADYYCLSTNSDDDLPVFGGGTKLTVL
B2: W3452-2.683.2-z27-IgG4PE,L (antibody, V domains shown)
VH: B1 VH
VL: B1 VL
B3: W3452-1.164.16-z11-IgG1K (antibody, V domains shown)
VH: QVQLQESGPGLVKPSETLSLTCTVSGFSLTNYHVYWIRQPPGKGLEWIGVMWNHGDTSYNSPLKSRVTISVDTSKSQFSLKLSSVTAADTAVYYCARGGYVPDYWGQGTMVTVSS
VL: DIVMTQSPLSLPVTPGEPASISCRSSQSLVHSNAKTYLHWYLQKPGQSPQLLIYRVSNRFSGVPDRFSGSGSGTDFTLKISRVEAEDVGVYYCLQTTHFPYTFGQGTKLEIK

These binders were tested against 人CD47 (human CD47) (human) (UniProt Q08722) (assay: FACS competition on CHOK1 cells stably transfected with human CD47; competitor 1 μg/ml human SIRPα-His).
UniProt Q08722, sequence (Q08722 19-323): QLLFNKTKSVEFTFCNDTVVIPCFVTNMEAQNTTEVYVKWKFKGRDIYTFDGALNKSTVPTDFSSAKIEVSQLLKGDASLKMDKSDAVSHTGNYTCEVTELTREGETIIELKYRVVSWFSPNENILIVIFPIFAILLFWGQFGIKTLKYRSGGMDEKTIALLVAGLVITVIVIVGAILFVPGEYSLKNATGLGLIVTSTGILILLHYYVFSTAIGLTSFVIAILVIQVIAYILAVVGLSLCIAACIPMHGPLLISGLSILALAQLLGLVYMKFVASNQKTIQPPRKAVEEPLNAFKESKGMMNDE

阻断率, > 90%:
B1
B2
B3
